Values joined by “and” are separate entries in the source; they are usually repeats but may differ in a detail not shown here. Equal entries are not always repeated.
B1: γ4: rat calcium channel γ4 subunit (AF361341), SEQ ID NO:47 (protein, listed as Rattus norvegicus)
chain: MVRCDRGLQMLLTTAGAFAAFSLMAIAIGTDYWLYSSAHICNGTNLTMDDGPPPRRARGDLTHSGLWRVCCIEGIYKGHCFRINHFPEDNDYDHDSSEYLLRIVRASSVFPILSTILLLLGGLCIGAGRIYSRKNNIVLSAGILFVAAGLSNIIGIIVYISSNTGDPSDKRDEDKKNHYNYGWSFYFGALSFIVAETVGVLAVNIYIEKNKELRFKTKREFLKASSSSPYSRMPSYRYRRRRSRSSSRSTEASPSRDASPVGLKITGAIPMGELSMYTLSREPLKVTTAASYSPDQDAGFLQMHDFFQQDLKEGFHVSMLNRRTTPV
B2: γ6L: rat calcium channel γ6 subunit, long isoform (AF361343), SEQ ID NO:48 (protein, listed as Rattus norvegicus)
chain: MMWSNFFMQEEDRRRTAVGRRRAQEQQNLGLTPEREGKIKLGLLVAIVGATLAVLAVGTEFWVELNTYKTNGSAVCEAAHLGLWKVCIKRLWQADVPAGRETCGPAELPGEANCTYFKFFTTGENAHIFQRTTKKEVNLAAAVIAVLGLTAMALGCLCVIMVLSKGAEFLLRLGAVCFGLSGLLLFVSLEVFRHSVRALLQGVNPETPPAPRLAYEYSWSLGCGVGAGLILLLGGVCFLLLTLPSWPWRSLCPKRGGPTA

Assays:
Type in all cases: cell-based
Cav3.1 = target: T1, Cav3.1 (Homo sapiens, UniProt O43497); assay: Whole-cell patch clamp of Cav3.1 current in Cav3.1-HEK cells transfected with γ6, γ4, their first transmembrane domains or point mutants (Example 3); parameters: Activation K / Inactivation K: unit not given here; details: for Peak current density: Cav3.1-HEK cells, control 48.43±2.62; for Calcium current density (unit not given): Example 2, control −48.39+/−2.6, fusion series control −46.9+/−5; for Normalized Current Density: relative to vector control (100.0%), Table 3.3
T1 construct: expressed in transfected cells; host or cells: HEK-293, stably transfected
T1 sequence (O43497 whole entry, the tested form may be a part): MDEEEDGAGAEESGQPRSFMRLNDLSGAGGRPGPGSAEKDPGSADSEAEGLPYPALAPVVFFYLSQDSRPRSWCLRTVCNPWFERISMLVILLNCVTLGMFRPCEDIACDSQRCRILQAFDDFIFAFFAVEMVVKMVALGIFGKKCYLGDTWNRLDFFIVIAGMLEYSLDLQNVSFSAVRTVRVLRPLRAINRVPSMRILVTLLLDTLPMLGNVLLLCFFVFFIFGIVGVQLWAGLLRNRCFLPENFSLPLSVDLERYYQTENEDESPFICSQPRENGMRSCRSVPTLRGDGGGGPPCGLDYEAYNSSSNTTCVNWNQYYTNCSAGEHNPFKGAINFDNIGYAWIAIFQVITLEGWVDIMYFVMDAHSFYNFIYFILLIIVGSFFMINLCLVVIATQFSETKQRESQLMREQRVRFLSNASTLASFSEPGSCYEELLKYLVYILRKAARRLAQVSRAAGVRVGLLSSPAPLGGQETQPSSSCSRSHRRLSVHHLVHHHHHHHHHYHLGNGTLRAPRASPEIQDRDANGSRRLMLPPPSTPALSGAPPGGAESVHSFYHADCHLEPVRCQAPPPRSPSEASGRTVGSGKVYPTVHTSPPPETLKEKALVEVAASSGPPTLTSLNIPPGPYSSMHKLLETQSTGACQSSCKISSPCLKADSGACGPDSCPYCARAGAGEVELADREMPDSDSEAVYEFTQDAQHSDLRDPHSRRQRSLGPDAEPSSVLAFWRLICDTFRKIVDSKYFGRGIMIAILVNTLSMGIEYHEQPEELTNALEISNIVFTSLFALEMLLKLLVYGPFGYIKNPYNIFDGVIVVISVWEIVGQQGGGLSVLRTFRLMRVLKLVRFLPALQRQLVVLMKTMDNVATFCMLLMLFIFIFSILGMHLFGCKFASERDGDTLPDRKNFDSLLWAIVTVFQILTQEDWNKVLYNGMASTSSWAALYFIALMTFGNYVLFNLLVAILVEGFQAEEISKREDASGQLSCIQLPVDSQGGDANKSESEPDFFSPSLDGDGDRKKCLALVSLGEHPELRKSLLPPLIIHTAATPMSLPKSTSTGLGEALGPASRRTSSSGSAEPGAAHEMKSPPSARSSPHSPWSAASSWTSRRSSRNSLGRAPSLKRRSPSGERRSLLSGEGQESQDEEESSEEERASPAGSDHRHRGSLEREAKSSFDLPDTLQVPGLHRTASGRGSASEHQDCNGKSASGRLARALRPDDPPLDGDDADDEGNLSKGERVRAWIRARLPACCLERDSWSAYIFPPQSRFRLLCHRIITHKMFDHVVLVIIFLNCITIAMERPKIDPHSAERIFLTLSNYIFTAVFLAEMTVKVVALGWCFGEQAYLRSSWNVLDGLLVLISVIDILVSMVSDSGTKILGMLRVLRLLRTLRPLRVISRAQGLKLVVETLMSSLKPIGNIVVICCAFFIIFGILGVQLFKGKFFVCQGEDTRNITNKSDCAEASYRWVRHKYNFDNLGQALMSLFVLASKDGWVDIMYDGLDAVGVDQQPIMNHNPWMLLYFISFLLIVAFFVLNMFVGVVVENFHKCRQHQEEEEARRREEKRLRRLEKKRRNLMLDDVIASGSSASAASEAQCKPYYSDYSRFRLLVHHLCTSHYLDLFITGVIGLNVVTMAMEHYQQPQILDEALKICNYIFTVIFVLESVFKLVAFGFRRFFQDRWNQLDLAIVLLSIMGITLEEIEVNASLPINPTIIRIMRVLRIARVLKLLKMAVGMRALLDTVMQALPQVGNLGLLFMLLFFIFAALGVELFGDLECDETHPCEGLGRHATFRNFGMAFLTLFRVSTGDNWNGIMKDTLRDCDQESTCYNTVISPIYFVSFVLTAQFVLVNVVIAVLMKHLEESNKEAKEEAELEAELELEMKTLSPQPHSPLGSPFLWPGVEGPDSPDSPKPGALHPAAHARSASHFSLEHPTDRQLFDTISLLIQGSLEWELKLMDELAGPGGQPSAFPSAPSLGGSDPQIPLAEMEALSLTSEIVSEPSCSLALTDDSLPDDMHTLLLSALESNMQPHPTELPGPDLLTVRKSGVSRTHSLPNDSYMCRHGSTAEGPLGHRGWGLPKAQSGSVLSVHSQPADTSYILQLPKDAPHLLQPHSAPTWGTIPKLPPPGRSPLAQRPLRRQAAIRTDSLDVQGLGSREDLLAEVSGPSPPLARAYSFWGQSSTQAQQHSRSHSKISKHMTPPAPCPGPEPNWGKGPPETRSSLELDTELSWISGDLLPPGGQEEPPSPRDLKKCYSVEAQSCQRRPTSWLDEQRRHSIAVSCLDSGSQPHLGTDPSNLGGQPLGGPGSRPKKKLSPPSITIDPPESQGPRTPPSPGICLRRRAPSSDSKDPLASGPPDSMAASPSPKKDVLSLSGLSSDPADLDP
Protocol: Transfection. HEK-293 cells stably transfected with the Cav3.1 α1 subunit were transiently transfected with vectors containing GFP and γ subunits cDNA when the cultures reached 50% confluency. Lipofectamine 2000 reagent (Invitrogen) was used following manufacturer's protocol.
Electrophysiology. Whole cell Ca2+ currents were recorded at room temperature using an Axon Instruments Axopatch-1D amplifier, a Digidata 1200 interface and pClamp8.0 software about 48 hours after transfection. Cell capacitance was typically around 10 pF, but ranged from 5-40 pF. Recording micropipettes were made from borosilicate glass (2-3 Mohms tip resistance), and filled with solution contained (in mM) 130 NaCl, 10 EGTA, 2 MgCl2, 1 CaCl2, 10 HEPES, 3 Tris-ATP, and 0.3 Li2GTP or 0.3 Tris-GTP. Tyrode's solution was used as the bath solution. It contained (in mM) 137 NaCl, 1 KCl, 1 MgCl2, 0.33 NaH2PO4, 2 CaCl2, 10 HEPES. Both solutions were adjusted to pH 7.4 with NaOH and 280 mOsm with sucrose.
We determined the biophysical characteristics of Cav3.1 currents in transfected HEK-293 cells and effects of the first transmembrane domain of γ4 and γ6 on these properties. Test parameters were optimized for studying Cav3.1 current. The time constant (τ) of deactivation (τdeac) was obtained by single exponential fitting of tail currents. For Cav3.1 currents, the cells were clamped at a holding potential of −100 mV, then depolarized to −20 mV for 4 msec, and repolarized to various voltages from −120 mV to −60 mV at 10 mV interval for 150 msec to elicit tail currents.
The voltage dependence of activation was measured using tail currents. For Cav3.1 currents, the cells were clamped at a holding potential equal to −100 mV, and then depolarized briefly to a conditioning potential, varying from −90 mV to +60 mV, and finally clamped at −60 mV before inactivation. Using this protocol, all tail currents are elicited at the same driving force (at −60 mV), so the current amplitude accurately reflects the number of channels opened during the different conditioning potentials.
A series of conditioning prepulses of 500 msec were used to measure voltage dependence of inactivation in our experiments. Channels initially open and then reach steady-state inactivation during the 500 msec long prepulses. The membrane potential is stepped to a fixed test potential of −20 mV, where maximal peak current is elicited. Currents elicited at each test potential reflect how many channels are not in the inactivated state after a steady-state inactivation; that is, how many channels are available to open. The conditioning prepulse potentials were changed from −120 mV to 50 mV, and the test potential is fixed at −20 mV.
Data collection and analysis. To probe the structural features necessary for the function of γ subunits, we are using HEK-293 cell line stably transfected with Cav3.1 α1 subunit. These cells are then transiently transfected with vectors containing various chimeric, truncated or mutant gamma subunits. […] There is inherent variation in calcium current density in the HEK-Cav3.1 stable cell line likely due to differences in the batch used, passenger number, extent of cellular confluence, or for other unknown reasons. The averaged current density of each test group of cells was normalized to the mean current density of a parallel control group of cells plated from the same batch of cells and analyzed on the same day. A minimum of 5 cells (typically 7 to 10) from each group was used to calculate the mean behavior of test and control cells from each days recording. At least two independent transfections were performed for each test condition. Overall, averages were obtained from 21 control groups of cells that had been transfected with empty vector over several months. The data are pooled together to reduce the variance. […] The current density of the control cells over many months justified the pooling of data recorded from different batches of cells transfected with mutated γ subunits. […]

Cav3.2 = target: T2, Cav3.2 (Homo sapiens, UniProt O95180); assay: Calcium current density in heterologous expression system, Cav3.2; details: heterologous expression systems
T2 construct: expressed in transfected cells; host or cells: heterologous expression system (HEK-293 stably transfected with Cav3.2 is mentioned)

Cav2.3 = target: T3, Cav2.3 (Homo sapiens, UniProt Q15878); assay: Calcium current density in heterologous expression system, Cav2.3; details: heterologous expression systems
T3 construct: expressed in transfected cells
T3 sequence (Q15878 whole entry): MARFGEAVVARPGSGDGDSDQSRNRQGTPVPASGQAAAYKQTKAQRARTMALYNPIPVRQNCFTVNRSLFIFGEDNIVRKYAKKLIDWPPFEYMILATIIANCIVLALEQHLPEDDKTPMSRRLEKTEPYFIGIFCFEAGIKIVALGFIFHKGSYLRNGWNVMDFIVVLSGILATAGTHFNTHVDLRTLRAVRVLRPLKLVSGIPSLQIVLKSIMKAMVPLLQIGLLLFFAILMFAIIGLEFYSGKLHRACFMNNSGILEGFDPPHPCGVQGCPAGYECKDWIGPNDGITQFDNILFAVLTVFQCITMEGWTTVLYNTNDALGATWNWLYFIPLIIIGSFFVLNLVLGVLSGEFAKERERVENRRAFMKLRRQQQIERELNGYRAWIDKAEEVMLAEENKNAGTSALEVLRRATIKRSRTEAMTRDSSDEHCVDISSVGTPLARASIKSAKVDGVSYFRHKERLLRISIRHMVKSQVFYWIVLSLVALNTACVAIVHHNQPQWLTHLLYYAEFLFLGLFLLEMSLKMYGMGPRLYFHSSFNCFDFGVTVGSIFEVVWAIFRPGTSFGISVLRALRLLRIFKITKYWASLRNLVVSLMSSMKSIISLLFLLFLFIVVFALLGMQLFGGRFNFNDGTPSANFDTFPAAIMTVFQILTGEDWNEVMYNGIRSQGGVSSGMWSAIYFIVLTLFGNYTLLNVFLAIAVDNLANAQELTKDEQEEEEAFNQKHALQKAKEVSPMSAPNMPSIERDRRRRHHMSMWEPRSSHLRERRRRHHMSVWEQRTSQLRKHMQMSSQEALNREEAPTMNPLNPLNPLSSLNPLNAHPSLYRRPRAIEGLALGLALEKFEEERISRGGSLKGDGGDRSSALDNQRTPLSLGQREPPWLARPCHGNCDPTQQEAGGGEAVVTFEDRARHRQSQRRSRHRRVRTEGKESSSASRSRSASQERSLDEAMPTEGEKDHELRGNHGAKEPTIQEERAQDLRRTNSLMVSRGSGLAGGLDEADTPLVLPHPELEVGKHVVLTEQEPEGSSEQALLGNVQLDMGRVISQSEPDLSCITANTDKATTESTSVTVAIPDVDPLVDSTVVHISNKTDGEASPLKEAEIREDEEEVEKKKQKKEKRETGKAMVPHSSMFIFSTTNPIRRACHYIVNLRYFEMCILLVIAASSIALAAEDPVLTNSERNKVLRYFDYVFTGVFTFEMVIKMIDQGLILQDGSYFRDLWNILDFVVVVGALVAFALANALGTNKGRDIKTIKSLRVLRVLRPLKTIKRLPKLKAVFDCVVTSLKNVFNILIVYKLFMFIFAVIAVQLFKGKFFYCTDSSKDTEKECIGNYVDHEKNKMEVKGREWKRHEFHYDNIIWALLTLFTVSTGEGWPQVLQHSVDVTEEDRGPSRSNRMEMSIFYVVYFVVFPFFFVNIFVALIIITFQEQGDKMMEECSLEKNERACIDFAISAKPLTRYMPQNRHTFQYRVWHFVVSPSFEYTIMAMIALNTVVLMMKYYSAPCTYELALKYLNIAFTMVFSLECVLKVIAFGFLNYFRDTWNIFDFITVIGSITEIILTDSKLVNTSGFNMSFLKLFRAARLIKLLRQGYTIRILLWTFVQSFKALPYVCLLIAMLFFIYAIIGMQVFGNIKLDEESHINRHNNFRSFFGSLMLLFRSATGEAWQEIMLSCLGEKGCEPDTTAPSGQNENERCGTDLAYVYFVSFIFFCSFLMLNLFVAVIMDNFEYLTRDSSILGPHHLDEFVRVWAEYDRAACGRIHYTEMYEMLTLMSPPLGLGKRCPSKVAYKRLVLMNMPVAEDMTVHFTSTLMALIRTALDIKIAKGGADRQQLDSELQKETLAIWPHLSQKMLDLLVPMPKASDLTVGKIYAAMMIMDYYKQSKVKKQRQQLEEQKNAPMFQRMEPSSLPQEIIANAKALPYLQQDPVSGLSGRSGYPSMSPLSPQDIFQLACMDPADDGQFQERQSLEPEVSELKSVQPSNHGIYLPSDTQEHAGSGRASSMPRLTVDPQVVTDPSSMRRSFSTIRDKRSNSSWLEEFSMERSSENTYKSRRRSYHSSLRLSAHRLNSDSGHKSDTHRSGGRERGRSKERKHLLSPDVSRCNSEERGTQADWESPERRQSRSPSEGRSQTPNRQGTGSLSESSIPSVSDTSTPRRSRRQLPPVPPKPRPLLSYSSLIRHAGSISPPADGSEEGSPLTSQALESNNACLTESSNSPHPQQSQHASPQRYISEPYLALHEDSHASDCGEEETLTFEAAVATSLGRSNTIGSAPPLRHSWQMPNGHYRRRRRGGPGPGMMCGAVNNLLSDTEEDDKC

Molecule	Peak current density (Cav3.1)	Calcium current density (unit not given) (Cav3.1)	Activation K (Cav3.1; Table 3.2)	Activation V peak (Cav3.1; Table 3.2)	Activation V½ (Cav3.1; Table 3.2)	Deactivation τ @−100 mV (Cav3.1; Table 3.2)	Inactivation K (Cav3.1; Table 3.2)	Inactivation V½ (Cav3.1; Table 3.2)	Inactivation τ @−20 mV (Cav3.1; Table 3.2)	Time to peak @−25 mV (Cav3.1; Table 3.2)	Normalized Current Density (Cav3.1)	Decrease of peak current density from control (Cav3.1; TM1 series, vs blank vector)	Averaged peak current (Cav3.1; group transfected with γ6, n=10)	Decrease of Cav3.1 peak current density from control (Cav3.1; mutant series, control 100%±4.4%)	Normalized Current Density (Cav3.1; listed as γ6)	Effect on Cav3.2 calcium current density (Cav3.2)	Effect on Cav2.3 calcium current density (Cav2.3)
B1	48.28±3.30 pA/pF	−56.3+/−5	12.83 ± 0.79	−29.44±1.89 mV	−31.62 ± 3.24 mV	2.20 ± 0.11 ms	−6.04 ± 0.24	−67.77 ± 1.86 mV	27.3 ± 1.4 ms	8.37 ± 0.39	116.02%±11.4% and 116.0%	–	–	–	–	–	–
B2	27.85±3.32 pA/pF	−7.8+/−3.3	11.99 ± 1.39	–	−28.12 ± 4.07 mV	2.22 ± 0.19 ms	−5.42 ± 0.34	−67.53 ± 4.81 mV	23.9 ± 1.6 ms	9.03 ± 0.57	–	42%	−344.2±48.4 pA	45%	55.4%±5.7% and 55.4%	decreased	decreased

Reference: patent US8022177B2, “Peptides and calcium regulation in mammalian cells” (The Board of Trustees of the University of Illinois, priority 2005, dated 2011)
